The record followed here is patent US20160169885A1.

Data set [1] has as its system Ac-N-Asp-Gly-Asp-Ala-Gly-Tyr-Ala-Gly-Leu-Arg-Gly-Ala-Gly-diamino-ethyl-Bodipy FL.
Data set [2] has as its target Ac-N-Asp-Gly-Asp-Ala-Gly-Tyr-Ala-Gly-Leu-Arg-Gly-Ala-Gly-diamino-ethyl-Bodipy FL. Description: cell-based or functional assay.

As for bovine pancreatic α-chymotrypsin, in data set [1], the “cleavage of the substrate, agarose gel electrophoresis, 1×PBS” value was “after cleavage by α-chymotrypsin, migrates as two bands toward the cathode, representing a primary ... and a secondary ... α-chymotrypsin cleavage product”.

The substance “bovine pancreatic trypsin (from UniProt P00760 24-246) (enzyme)” came in with a detection limit of the cleavage products in whole rat blood (reaction in 1×PBS, then mixed with inhibitor-treated blood), agarose gel in data set [2] of 50 nM.
